Patent US20200277405A1, “COMPOSITION FOR ANTIBODY-DRUG CONJUGATE DIRECTED AGAINST TUMOR-CELL ASSOCIATED POLYSIALIC ACID” (Cornell University, priority 2019, published 2020)

B1: mo735: well-known mouse-derived IgG2a monoclonal antibody 735 targeting polysialic acid (antibody, V domains shown)
VH: QIQLQQSGPELVRPGASVKISCKASGYTFTDYYIHWVKQRPGEGLEWIGWIYPGSGNTKYNEKFKGKATLTVDTSSSTAYMQLSSLTSEDSAVYFCARGGKFAMDYWGQGTSVTVSS
VL: DVVMTQTPLSLPVSLGDQASISCRSSQSLVHSNGNTYLYWYLQKPGQSPKPLIYRVSNRFSGVPDRFSGSGSGTDFTLKISRVEAEDLGVYFCFQGTHVPYTFGGGTRLEIK
B2: ch735: chimeric human IgG1 polySia-specific mAb made by swapping variable regions of mouse mAb 735 (antibody, V domains shown)
VH: B1 VH
VL: B1 VL

Columns and labels:
SW2 cells = test: Supplementary internalization assays; format: cell-based, human; conditions: increases with concentration and time
From the text: FIGS. 11A-11D depict internalization of mo735 by polySia-expressing cancer cells. […] Trypan blue was used to quench extracellular fluorescence. […] Cell membranes were labeled with wheat germ agglutinin (WGA,) and nuclei were stained with Hoescht. Scale bar, 10 μm. […] Cell membranes were labeled with wheat germ agglutinin (WGA) and nuclei were stained with Hoescht. Scale bar, 10 μm. […] Images include external mo735 detected with anti-mouse AF488, internal mo735 detected with anti-mouse AF647, nuclei stained with Hoescht, and a merged image. Scale bar, 10 μm.
For supplementary internalization assays, AF488-labeled isotype and mo735 antibodies were incubated with trypsinized SW2 cells at various concentrations for 2 h. Upon measurement in the flow cytometer, the extracellular fluorescence was quenched using trypan blue (final concentration 0.2%). For each sample, the mean fluorescence intensity (MFI) of 10,000 cells was measured in triplicate. […] Antibody internalization was also assessed according to the protocol described by Schmitz and coworkers (Diestel et al., “NCAM is Ubiquitylated, Endocytosed and Recycled in Neurons,” J. Cell. Sci. 120:4035-49 (2007), which is hereby incorporated by reference in its entirety), cells were incubated for 1 or 4 h at 37° C. with 150 nM mo735 in cell culture media. […]

cultured neurons = conditions: unconjugated antibody; cited from earlier work
cells and tissues = conditions: previously published IHC results (Zhang et al.); cited from earlier work
polysialylated NCAM = test: Glycoprotein array specificity profiling; format: binding, chicken
Procedure: (§1) FIGS. 2A-2D depict binding specificity and affinity of the ch735 antibody. […] ELISA signals (Abs370) were obtained with anti-human IgG secondary antibodies. […] Antibodies were assayed at 1 μg/mL and detected with anti-human IgG secondary antibodies. […] Antibodies were assayed at 10 μg/mL and detected with anti-mouse IgG secondary antibodies.
as §1, with “3A-3D” for “2A-2D”, “mo735” for “the ch735”, “anti-mouse” for “anti-human”
Specificity of mo735 and ch735 was determined using printed glycan arrays 5.3 and 5.4 at the CFG. Both antibodies were analyzed at 10 μg/mL with 5 μg/mL of anti-mouse or anti-human Alexa-Fluor 647 (AF647)-conjugated secondary, respectively. Specificity of mo735 (1 μg/mL) and ch735 (10 μg/mL) was also assessed on a custom glycoprotein array that contained ˜40-50 glycoproteins including chicken brain NCAM and endoN-treated chicken brain NCAM.

[1] = system: polySia-positive cell lines SH-SY5Y, SW2, H69, and H82; test: Internalization assay, polySia-positive cell lines; format: cell-based, human; conditions: after 1 h at 37° C.; each polySia-positive cell line
Procedure: (§2) FIGS. 10A-10E depict internalization of ch735 into polySia-positive cancer cells. […] Nuclei were stained by Hoescht (blue). Scale bar, 10 Fluorescence intensity was measured across the dotted line and normalized to the maximum value in each channel. Arrows indicate regions of colocalization. […] Nuclei were stained by Hoescht. Scale bar, 10 Fluorescence intensity was measured across the dotted line and normalized to the maximum value in each channel. Arrows indicate regions of colocalization. The inset show only the ch735 and DNA channels of the boxed region. […] Scale bar, 10 Fluorescence intensity was measured across the dotted white line and normalized to the maximum value in each channel. […]
(§3) To calculate percent internalization, pre-chilled cells were incubated with 50 nM ch735 on ice for 1 h and then washed to remove unbound antibodies. […] Cells were fixed in 2% paraformaldehyde for 20 min and then stained with AF488-labeled antibody against human IgG and analyzed by flow cytometry and FlowJo software. Receptor-antibody complex internalization was calculated using the geometric mean as percent fluorescent intensity loss at 37° C. relative to that on ice. For each sample, the geometric mean fluorescence intensity (MFI) of 10,000 cells was measured in triplicate.

[2] = system: polySia-positive cell line SH-SY5Y; test: Time course of antibody internalization; format: cell-based, human
Procedure: as §2, §3

| Molecule | antibody internalization (SW2 cells) | complement-dependent cytotoxicity (CDC) (cultured neurons) | IHC reactivity with cells and tissues (cells and tissues) | glycoprotein array binding (polysialylated NCAM; array of ~50 glycoproteins) | signal towards any other glycomolecules (polysialylated NCAM; microarrays, including endoN-treated NCAM spotted on the glycoprotein array) | antibody internalized [1] [%] | antibody internalized ([2]; 15 min) [%] | maximum internalization ([2]; reached by 30 min) [%] |
| --- | --- | --- | --- | --- | --- | --- | --- | --- |
| B1 | comparable internalization | only limited complement-dependent cytotoxicity (CDC) | reacted with only a limited number of cells and tissues | – | – | – | – | – |
| B2 | – | – | – | strong preference for polysialylated NCAM | no significant signal | ~40 | ~30 | 40 |
